Measured values reported in patent US4793986A, “Macromolecular platinum antitumor compounds” (Johnson Matthey, Inc., priority 1987, dated 1988).

How the values were obtained:
Pt release = type: physicochemical; design: unit not given here
L1210 = assay: Lifespan summary, L1210; type: in vivo, mice; conditions: i.p.; for AWG D.5: day 5
L1210 Leukemia = assay: Effect on L1210 Leukemia; type: in vivo, mice; conditions: i.p.; for AWG D.5: day 5
[1] = cited from earlier work
HCT-116 = assay: In-vitro cytotoxicity testing, HCT-116; type: cell-based; conditions: HCT-116 (human colon)
From the text: (§1) IN-VITRO CY[…]^1
(§2) IC50 (ug/ml)/Active Dilution

SW1271 = assay: In-vitro cytotoxicity testing, SW1271; type: cell-based; conditions: SW1271 (human lung)
From the text: as §1, §2

B16-F10 = assay: In-vitro cytotoxicity testing, B16-F10; type: cell-based; conditions: B16-F10 (murine melanoma)
From the text: as §1, §2
B16F10 -- Murine melanoma

A549 = assay: In-vitro cytotoxicity testing, A549; type: cell-based; conditions: A549 (human lung)
From the text: IN-VITRO CYTOTOXICITY TESTING^1
as §2

[2] = pH 5.80, 1 h, 0.1M phosphate buffer
[3] = pH 5.80, 24 h, 0.1M phosphate buffer
[4] = pH 5.80, 48 h, 0.1M phosphate buffer
[5] = pH 7.00, 1 h, 0.1M phosphate buffer
[6] = pH 7.00, 24 h, 0.1M phosphate buffer
[7] = pH 7.00, 48 h, 0.1M phosphate buffer
[8] = pH 8.00, 1 h, 0.1M phosphate buffer
[9] = pH 8.00, 24 h, 0.1M phosphate buffer
[10] = pH 8.00, 48 h, 0.1M phosphate buffer
[11] = 4 mg/kg/dose, Q01DX1;1, vehicle BS
[12] = 6 mg/kg/dose, Q01DX1;1, vehicle BS
[13] = 8 mg/kg/dose, Q01DX1;1, vehicle BS
[14] = 10 mg/kg/dose, Q01DX1;1, vehicle BS
[15] = 160 mg/kg/dose, Q01DX1;1, H2O + tween 80
[16] = 240 mg/kg/dose, Q01DX1;1, H2O + tween 80
[17] = 320 mg/kg/dose, Q01DX1;1, H2O + tween 80
[18] = 400 mg/kg/dose, Q01DX1;1, H2O + tween 80
[19] = 80 mg/kg/dose, Q01DX1;1, H2O + tween 80
[20] = 120 mg/kg/dose, Q01DX1;1, H2O + tween 80

## Pt-Malonato Xylan [Example 9]
Pt release; [2]
  Pt release: 3.1
Pt release; [3]
  Pt release: 22.6
Pt release; [4]
  Pt release: 29.8
Pt release; pH 5.80, 72 h, 0.1M phosphate buffer
  Pt release: 32.8
Pt release; pH 5.80, 144 h, 0.1M phosphate buffer
  Pt release: 41.9
Pt release; [5]
  Pt release: 2.1
Pt release; [6]
  Pt release: 17.9
Pt release; [7]
  Pt release: 23.7
Pt release; pH 7.00, 72 h, 0.1M phosphate buffer
  Pt release: 27.5
Pt release; pH 7.00, 144 h, 0.1M phosphate buffer
  Pt release: 40.9
Pt release; [8]
  Pt release: 1.7
Pt release; [9]
  Pt release: 18.9
Pt release; [10]
  Pt release: 25.4
Pt release; pH 8.00, 72 h, 0.1M phosphate buffer
  Pt release: 28.2
Pt release; pH 8.00, 144 h, 0.1M phosphate buffer
  Pt release: 35.8

## N.N.[Cl][Pt][Cl] [Cisplatin, cis-diamino dichloroplatinum(II)]
L1210; [11]
  % T/C: 129%
  Med. S.T.: 9.0
  AWG D.5: -0.7 Gm
L1210; [12]
  % T/C: 157%
  Med. S.T.: 11.0
  AWG D.5: -2.1 Gm
L1210; [13]
  % T/C: 171%
  Med. S.T.: 12.0
  AWG D.5: -2.8 Gm
L1210; [14]
  % T/C: 171%
  Med. S.T.: 12.0
  AWG D.5: -3.3 Gm
L1210 Leukemia; [11]
  % T/C: 129%
  Med. S.T.: 9.0
  AWG D.5: 0.2 Gm
L1210 Leukemia; [12]
  % T/C: 157%
  Med. S.T.: 11.0
  AWG D.5: -0.9 Gm
L1210 Leukemia; [13]
  % T/C: 136%
  Med. S.T.: 9.5
  AWG D.5: -1.4 Gm
L1210 Leukemia; [14]
  % T/C: 171%
  Med. S.T.: 12.0
  AWG D.5: -2.4 Gm
[1]; cisplatin as a drug
  nausea and vomiting: nausea and vomiting which cause extreme discomfort for the patient

## Pt-Malonato Dextran (Method B) [Example 2]
L1210; [15]
  % T/C: 107%
  Med. S.T.: 7.5
L1210; [16]
  % T/C: 121%
  Med. S.T.: 8.5
L1210; [17]
  % T/C: 114%
  Med. S.T.: 8.0
L1210; [18]
  % T/C: 143%
  Med. S.T.: 10.0
L1210 Leukemia; [19]
  % T/C: 100%
  Med. S.T.: 7.0
L1210 Leukemia; [20]
  % T/C: 100%
  Med. S.T.: 7.0
L1210 Leukemia; [15]
  % T/C: 107%
  Med. S.T.: 7.5
HCT-116
  IC50: 430 µg/mL
SW1271
  IC50: > 500 µg/mL
B16-F10
  IC50: 332 µg/mL

## N.N.O=C([O-])C1(C(=O)[O-])CCC1.[Pt+2] [carboplatin]
[1]; carboplatin, relative to cisplatin
  nephrotoxicity: decreased nephrotoxicity

## Pt-malonato dextran [Pt-malonato dextran of Example 3]
Pt release; pH 5.50, 1 h
  Pt release: 0.6
Pt release; pH 5.50, 16 h
  Pt release: 5.2
Pt release; pH 5.50, 40 h
  Pt release: 6.4
Pt release; pH 5.50, 64 h
  Pt release: 7.6
Pt release; pH 7.10, 1 h
  Pt release: 0.6
Pt release; pH 7.10, 16 h
  Pt release: 4.2
Pt release; pH 7.10, 40 h
  Pt release: 4.9
Pt release; pH 7.10, 64 h
  Pt release: 6.1
Pt release; pH 8.20, 1 h
  Pt release: 0.7
Pt release; pH 8.20, 16 h
  Pt release: 4.2
Pt release; pH 8.20, 40 h
  Pt release: 5.1
Pt release; pH 8.20, 64 h
  Pt release: 6.4

## Pt-Malonato Inulin [Example 7]
Pt release; pH 5.42, 1 h
  Pt release: 4.7
Pt release; pH 5.42, 24 h
  Pt release: 18.1
Pt release; pH 5.42, 48 h
  Pt release: 20.5
Pt release; pH 5.42, 72 h
  Pt release: 26.2
Pt release; pH 5.42, 144 h
  Pt release: 27.5
Pt release; pH 6.76, 1 h
  Pt release: 3.1
Pt release; pH 6.76, 24 h
  Pt release: 15.2
Pt release; pH 6.76, 48 h
  Pt release: 18.3
Pt release; pH 6.76, 72 h
  Pt release: 20.0
Pt release; pH 6.76, 144 h
  Pt release: 22.7
Pt release; pH 7.86, 1 h
  Pt release: 4.9
Pt release; pH 7.86, 24 h
  Pt release: 17.8
Pt release; pH 7.86, 48 h
  Pt release: 21.0
Pt release; pH 7.86, 72 h
  Pt release: 21.9
Pt release; pH 7.86, 144 h
  Pt release: 28.8

## Pt-Isoserinato Dextran [Example 5]
Pt release; [2]
  Pt release: 9.5
Pt release; [3]
  Pt release: 72.5
Pt release; [4]
  Pt release: 88.5
Pt release; pH 5.80, 120 h, 0.1M phosphate buffer
  Pt release: 98.7
Pt release; [5]
  Pt release: 8.8
Pt release; [6]
  Pt release: 61.1
Pt release; [7]
  Pt release: 76.3
Pt release; pH 7.00, 120 h, 0.1M phosphate buffer
  Pt release: 89.3
Pt release; [8]
  Pt release: 8.8
Pt release; [9]
  Pt release: 55.7
Pt release; [10]
  Pt release: 66.9
Pt release; pH 8.00, 120 h, 0.1M phosphate buffer
  Pt release: 76.2

## Pt-Malonato Dextran (Method A) [Example 1]
Pt release; pH 5.60, 2 h
  Pt release: 0.6
Pt release; pH 5.60, 24 h
  Pt release: 4.3
Pt release; pH 5.60, 48 h
  Pt release: 6.8
Pt release; pH 5.60, 72 h
  Pt release: 8.2
Pt release; pH 6.80, 2 h
  Pt release: 0.5
Pt release; pH 6.80, 24 h
  Pt release: 6.6
Pt release; pH 6.80, 48 h
  Pt release: 10.2
Pt release; pH 6.80, 72 h
  Pt release: 13.3
Pt release; pH 8.30, 2 h
  Pt release: 1.3
Pt release; pH 8.30, 24 h
  Pt release: 7.2
Pt release; pH 8.30, 48 h
  Pt release: 10.3
Pt release; pH 8.30, 72 h
  Pt release: 13.8
HCT-116
  IC50: > 500 µg/mL
SW1271
  IC50: 408 µg/mL
B16-F10
  IC50: 426 µg/mL
A549
  IC50: > 500 µg/mL
